Laboratory results taken from publication PMC2568865, “Hsp90-Dependent Activation of Protein Kinases Is Regulated by Chaperone-Targeted Dephosphorylation of Cdc37” (Molecular Cell, 2008).

How the values were obtained:
[1] = target: T1, pSer13-Cdc37 (human Cdc37 expressed in Sf9 cells, phosphorylated on Ser13) (human, UniProt Q16543 1-378, phosphoserine at 13); assay: co-purification (His6 affinity); human Cdc37 and N-terminally His6-tagged Cdk4 co-expressed in Sf9 cells by baculovirus; complexes purified via the His6 tag on Cdk4; Coomassie-stained SDS-PAGE; conditions: partners not purified
T1 construct: human Cdc37 (p50), phosphorylated on Ser13 in the insect cells; also called p50; Sf9-expressed Cdc37; source: Sf9 cells, baculovirus; purified in the C-K and H-C-K complexes with His6-Cdk4; free Cdc37 obtained as a by-product of the H-C-K complex purification
T1 sequence (looked up): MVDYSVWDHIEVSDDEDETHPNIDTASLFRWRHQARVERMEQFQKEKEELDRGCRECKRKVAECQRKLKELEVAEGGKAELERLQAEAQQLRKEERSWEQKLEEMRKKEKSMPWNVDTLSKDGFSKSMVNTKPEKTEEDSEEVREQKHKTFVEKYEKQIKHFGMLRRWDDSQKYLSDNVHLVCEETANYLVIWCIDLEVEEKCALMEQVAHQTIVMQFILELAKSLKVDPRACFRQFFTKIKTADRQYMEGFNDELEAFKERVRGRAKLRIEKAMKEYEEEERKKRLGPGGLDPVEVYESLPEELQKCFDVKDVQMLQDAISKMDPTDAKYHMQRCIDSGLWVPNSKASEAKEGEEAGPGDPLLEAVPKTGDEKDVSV

[2] = target: T2, Cdc37 (human, Sf9-expressed) dephosphorylated with λ-phosphatase (human, UniProt Q16543 1-378); assay: SEC; purified C-K complex incubated with or without λPP (1:10) for 1 hr at room temperature; Superose 6 HR10/30 in 50 mM Tris pH 7.5, 10 mM KCl, 10 mM MgCl2, 150 mM NaCl, 1 mM EDTA, 3 mM DTT; 1 ml fractions probed by Western blot; conditions: both partners purified
T2 construct: human Cdc37 (p50), Ser13 dephosphorylated in vitro by λPP; Same construct as m2 after treatment with λPP; also called dephosphorylated Cdc37; Cdc37 in dephosphorylated C-K or H-C-K complex; source: Sf9 cells, baculovirus; purified in the C-K and H-C-K complexes, then dephosphorylated with λ-phosphatase (NEB)
T2 sequence (looked up): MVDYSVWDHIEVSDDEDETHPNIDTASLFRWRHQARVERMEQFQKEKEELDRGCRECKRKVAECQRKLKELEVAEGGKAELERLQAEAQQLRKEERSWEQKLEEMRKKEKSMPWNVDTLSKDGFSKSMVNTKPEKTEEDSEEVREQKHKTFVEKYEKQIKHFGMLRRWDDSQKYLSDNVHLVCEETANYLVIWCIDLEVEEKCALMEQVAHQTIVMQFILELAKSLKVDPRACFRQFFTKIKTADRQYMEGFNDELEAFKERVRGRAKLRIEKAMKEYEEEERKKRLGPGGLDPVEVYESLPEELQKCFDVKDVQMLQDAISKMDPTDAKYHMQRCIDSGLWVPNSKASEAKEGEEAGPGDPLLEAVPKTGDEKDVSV

[3] = target: T3, full-length human Hsp90α (human, UniProt P07900 1-732); assay: pull-down; GST-PP5 on glutathione Sepharose with Cdc37 or CK2-phosphorylated Cdc37 preincubated with Hsp90α for 1 hr; 4°C, 2 hr; 50 mM HEPES pH 7.5, 150 mM NaCl, 0.1% NP40, BSA; PP5 dephosphorylates Cdc37 during the incubation; conditions: both partners purified
T3 construct: human Hsp90α

B1: His6-tagged Cdk4 (enzyme, human, UniProt P11802 1-303, looked up)
chain: MATSRYEPVAEIGVGAYGTVYKARDPHSGHFVALKSVRVPNGGGGGGGLPISTVREVALLRRLEAFEHPNVVRLMDVCATSRTDREIKVTLVFEHVDQDLRTYLDKAPPPGLPAETIKDLMRQFLRGLDFLHANCIVHRDLKPENILVTSGGTVKLADFGLARIYSYQMALTPVVVTLWYRAPEVLLQSTYATPVDMWSVGCIFAEMFRRKPLFCGNSEADQLGKIFDLIGLPPEDDWPRDVSLPRGAFPPRGPRPVQSVVPEMEESGAQLLLEMLTFNPHKRISAFRALQHSYLHKDEGNPE
notes: Cdk4, Cdc37/Hsp90-dependent protein kinase; also called K (in C-K and H-C-K); source: Sf9 cells, baculovirus, co-expressed with human Cdc37; purified via the His6 tag as C-K and H-C-K complexes; not shown: His6, N-terminal, kept
- binding result [1]: binds
- binding result [2]: binds

B2: pSer13-Cdc37 (E. coli-expressed Cdc37 phosphorylated in vitro with CK2) (natural protein, human, UniProt Q16543 1-378, looked up)
chain: MVDYSVWDHIEVSDDEDETHPNIDTASLFRWRHQARVERMEQFQKEKEELDRGCRECKRKVAECQRKLKELEVAEGGKAELERLQAEAQQLRKEERSWEQKLEEMRKKEKSMPWNVDTLSKDGFSKSMVNTKPEKTEEDSEEVREQKHKTFVEKYEKQIKHFGMLRRWDDSQKYLSDNVHLVCEETANYLVIWCIDLEVEEKCALMEQVAHQTIVMQFILELAKSLKVDPRACFRQFFTKIKTADRQYMEGFNDELEAFKERVRGRAKLRIEKAMKEYEEEERKKRLGPGGLDPVEVYESLPEELQKCFDVKDVQMLQDAISKMDPTDAKYHMQRCIDSGLWVPNSKASEAKEGEEAGPGDPLLEAVPKTGDEKDVSV
modifications: phosphoserine at 13
notes: human Cdc37 (p50), phosphorylated on Ser13 by CK2 in vitro; also called phosphorylated Cdc37; pCdc37; source: E. coli, purified, phosphorylated in vitro with CK2 (Promega), further purified on Resource Q
- binding result [3]: binds

B3: Cdc37 (E. coli-expressed, unphosphorylated) (natural protein, human, UniProt Q16543 1-378, looked up)
chain: MVDYSVWDHIEVSDDEDETHPNIDTASLFRWRHQARVERMEQFQKEKEELDRGCRECKRKVAECQRKLKELEVAEGGKAELERLQAEAQQLRKEERSWEQKLEEMRKKEKSMPWNVDTLSKDGFSKSMVNTKPEKTEEDSEEVREQKHKTFVEKYEKQIKHFGMLRRWDDSQKYLSDNVHLVCEETANYLVIWCIDLEVEEKCALMEQVAHQTIVMQFILELAKSLKVDPRACFRQFFTKIKTADRQYMEGFNDELEAFKERVRGRAKLRIEKAMKEYEEEERKKRLGPGGLDPVEVYESLPEELQKCFDVKDVQMLQDAISKMDPTDAKYHMQRCIDSGLWVPNSKASEAKEGEEAGPGDPLLEAVPKTGDEKDVSV
notes: human Cdc37 (p50), not phosphorylated; also called WT-Cdc37; nonphosphorylated Cdc37; source: E. coli, purified
- binding result [3]: binds
